These results are taken from paper PMC4538832, “Structures of the T. brucei kRNA editing factor MRB1590 reveal unique RNA-binding pore motif contained within an ABC-ATPase fold”.

The target of data set [1] is T1, MRB1590(10-668) (Trypanosoma brucei, UniProt UPI00067E648B 10-668).
T1 sequence: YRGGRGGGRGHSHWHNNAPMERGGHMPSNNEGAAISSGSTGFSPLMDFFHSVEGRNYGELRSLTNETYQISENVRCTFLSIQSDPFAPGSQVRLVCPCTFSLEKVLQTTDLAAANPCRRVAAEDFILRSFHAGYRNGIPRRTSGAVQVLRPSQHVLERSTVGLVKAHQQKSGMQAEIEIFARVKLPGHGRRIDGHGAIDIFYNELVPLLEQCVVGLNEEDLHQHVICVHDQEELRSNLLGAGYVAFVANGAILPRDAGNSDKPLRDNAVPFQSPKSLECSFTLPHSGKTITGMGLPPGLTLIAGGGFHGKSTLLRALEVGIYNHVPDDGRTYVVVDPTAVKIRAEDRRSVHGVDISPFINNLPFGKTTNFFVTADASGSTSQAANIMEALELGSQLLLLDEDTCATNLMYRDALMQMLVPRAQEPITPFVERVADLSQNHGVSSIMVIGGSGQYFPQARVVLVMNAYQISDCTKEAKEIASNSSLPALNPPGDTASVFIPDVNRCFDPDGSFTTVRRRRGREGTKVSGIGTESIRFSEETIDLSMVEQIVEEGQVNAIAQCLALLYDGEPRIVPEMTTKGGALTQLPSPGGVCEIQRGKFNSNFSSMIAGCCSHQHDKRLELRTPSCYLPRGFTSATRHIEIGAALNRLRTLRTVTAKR
Nature of the data set: fluorescence polarization; ADP, Mg2+; FP: 20 mM Tris-HCl pH 7.5, 150 mM NaCl, 5% glycerol, 1 mM MgCl2, 2 mM ADP or AMP-PNP, 1 nM 3'-fluoresceinated RNA (heated to 99 C, slow cooled), 25 C. To be noted: protein: recombinant, chain copies: 2. (In general: Polarisation of emitted light reports the rotation of a fluorescent probe.)

The target in data set [2] is T1, MRB1590(10-668). Nature of the data set: fluorescence polarization; AMP-PNP (table header says ATP), Mg2+; FP: 20 mM Tris-HCl pH 7.5, 150 mM NaCl, 5% glycerol, 1 mM MgCl2, 2 mM ADP or AMP-PNP, 1 nM 3'-fluoresceinated RNA (heated to 99 C, slow cooled), 25 C. The note with it: protein: recombinant; chain copies: 2; label: 3' fluorescein.
The target of a further data set is MRB1590 R191A (Trypanosoma brucei, UniProt UPI00067E648B 10-668, R191A). Nature of the data set: fluorescence polarization; ADP, Mg2+; small effect vs wt; FP: 20 mM Tris-HCl pH 7.5, 150 mM NaCl, 5% glycerol, 1 mM MgCl2, 2 mM ADP or AMP-PNP, 1 nM 3'-fluoresceinated RNA (heated to 99 C, slow cooled), 25 C. To be noted: protein: recombinant; chain copies: 2; label: 3' fluorescein.

Another data set addresses MRB1590 F95A (Trypanosoma brucei, UniProt UPI00067E648B 10-668, F95A). Briefly: fluorescence polarization; ADP, Mg2+; FP: 20 mM Tris-HCl pH 7.5, 150 mM NaCl, 5% glycerol, 1 mM MgCl2, 2 mM ADP or AMP-PNP, 1 nM 3'-fluoresceinated RNA (heated to 99 C, slow cooled), 25 C. To be noted: protein: recombinant; chain copies: 2; label: 3' fluorescein.
The next data set concerns the target MRB1590 R199A-R200A (Trypanosoma brucei, UniProt UPI00067E648B 10-668, R199A;R200A). The description is as above. To be noted: protein: recombinant; chain copies: 2; label: 3' fluorescein.
Another data set concerns the target MRB1590 Y637A (Trypanosoma brucei, UniProt UPI00067E648B 10-668, Y637A). Briefly: fluorescence polarization; ADP, Mg2+; little effect vs wt; FP: 20 mM Tris-HCl pH 7.5, 150 mM NaCl, 5% glycerol, 1 mM MgCl2, 2 mM ADP or AMP-PNP, 1 nM 3'-fluoresceinated RNA (heated to 99 C, slow cooled), 25 C. To be noted: protein: recombinant; chain copies: 2; label: 3' fluorescein.

The target of data set [3] is T1, MRB1590(10-668). Briefly: fluorescence polarization; ADP, Mg2+; 1 RNA : 2 subunits; FP: 20 mM Tris-HCl pH 7.5, 150 mM NaCl, 5% glycerol, 1 mM MgCl2, 2 mM ADP or AMP-PNP, 1 nM 3'-fluoresceinated RNA (heated to 99 C, slow cooled), 25 C. The note with it: protein: recombinant; chain copies: 2; label: 3' fluorescein.

AAAAAAAAAAAAAAA (ssRNA) [A15 RNA]: in the data set with MRB1590(10-668) [1] (label: 3' fluorescein), the Kd (usually the constant that tells how readily two partners part at equilibrium) was 437 ± 80 nM.

UUUUUUUUUUUUUUU (ssRNA) [U15 RNA]: the Kd with MRB1590(10-668) [1] (label: 3' fluorescein) is 182 ± 30 nM.

As to ACCGCCGUCGCCCGCCCGCCU (ssRNA) [Complement of GC-rich RNA], the Kd in the data set with MRB1590(10-668) [2] was 377 ± 69 nM; with MRB1590(10-668) [1] (label: 3' fluorescein), 395 ± 95 nM.

For the molecule CUAAUACACUUUUGAUAACAAACUAAAGUAAAAAGGCGAG (ssRNA) [RSP12 #1], the Kd in the data set with MRB1590(10-668) [1] (label: 3' fluorescein) is 63 ± 2.5 nM.

For the molecule UGAUACAAAAAAACAUGACUACAUGAUAAGUA (ssRNA) [NAD7 #1], the Kd with MRB1590(10-668) [1] (label: 3' fluorescein) is 50 ± 4 nM.

On to AGAGGCGGGCGGGCGACGGCGGU (structured_RNA) [GC-rich hairpin RNA], for which the binding result with MRB1590(10-668) [1] (label: 3' fluorescein, hairpin) is recorded as “no binding”.

For GAGAAGGCGAGGGCGACGGGCAAAAGAUUUU (ssRNA) [NAD7 #2], the Kd with MRB1590(10-668) [1] (label: 3' fluorescein) amounted to 7.8 ± 0.5 nM.

As for AGGCGGGCGGGCGACGGCGGU (ssRNA) [GC-rich sequence RNA (A6 pause site, 21 mer)], the binding result with MRB1590 R191A and with MRB1590 Y637A was “binds” in each case. Besides, the binding signal with MRB1590 F95A amounted to 10 fold reduction vs wt; with MRB1590 R199A-R200A it was 590 fold reduction vs wt. The dissociation constant Kd with MRB1590(10-668) [3] was determined as 2.2 ± 0.2 nM.

Turning to GAACCUGGUAGGUGUAAUGAAAUAAUUUUGU (ssRNA) [COX II #2], the dissociation constant Kd in the data set with MRB1590(10-668) [1] (label: 3' fluorescein) amounted to 43 ± 1.6 nM.

B1: dsGC-rich RNA (dsRNA)
RNA 1: AGGCGGGCGGGCGACGGCGGU
RNA 2: ACCGCCGUCGCCCGCCCGCCU
B1: the equilibrium dissociation constant (Kd) with MRB1590(10-668) [1] worked out at 50 ± 15 nM.

For GAUUUUUUGAGUGGGACUGGAGAGAAAGAGCCGUUCGAGC (ssRNA) [RSP12 #2], the Kd with MRB1590(10-668) [1] (label: 3' fluorescein) came out at 27 ± 2.8 nM.

For ACAAUAUCAAGUUUAGGUAUAAAGUAGA (ssRNA) [COX II #1], the Kd with MRB1590(10-668) [1] (label: 3' fluorescein) was 44 ± 2 nM.
